Numbering of substitutions follows the chain as printed.
Columns and labels:
[1] = target: T1, human PD-L1-Fc fusion protein (Sino Biological Cat #10084-H02H) (human, UniProt Q9NZQ7 19-239); assay: BLI (ForteBio), PD-L1-Fc on AHC sensor, Fab in solution
T1 construct: bought; not shown: Fc part of the bought fusion

[2] = target: T2, mouse PD-L1-Fc fusion protein (mouse, UniProt Q9EP73 19-238, limits assumed); assay: BLI (ForteBio), PD-L1 on AHC sensor, Fab in solution
T2 construct: not shown: Fc part
T2 sequence (Q9EP73 19-238 limits assumed): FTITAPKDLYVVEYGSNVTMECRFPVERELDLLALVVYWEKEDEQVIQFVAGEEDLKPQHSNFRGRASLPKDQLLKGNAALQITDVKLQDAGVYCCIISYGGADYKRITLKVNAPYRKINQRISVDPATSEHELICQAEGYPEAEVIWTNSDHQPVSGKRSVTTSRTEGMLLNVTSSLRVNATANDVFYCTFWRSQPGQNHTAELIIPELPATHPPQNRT

T1 sequence (Q9NZQ7 19-239 limits assumed): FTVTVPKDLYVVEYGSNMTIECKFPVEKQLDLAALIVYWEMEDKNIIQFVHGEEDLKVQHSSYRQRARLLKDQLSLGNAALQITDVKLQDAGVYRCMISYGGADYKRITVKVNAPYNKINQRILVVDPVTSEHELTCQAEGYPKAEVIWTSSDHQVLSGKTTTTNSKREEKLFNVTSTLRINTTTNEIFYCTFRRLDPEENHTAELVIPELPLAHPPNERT

B1: B13002 (Fab, V domains shown)
VH: EVQLVESGGGLVQPGGSLRLSCAASGYTFSNYGIHWVRQAPGKGLEWIGWIYPSGGGTKYAQKFQGRVTISRDNSKNTLYLQLNSLRAEDTAVYYCAREGGGYGYALDYWGQGTLVTVSS
VL: DIQLTQSPSSLSASVGDRVTITCRASQGVSSYLAWYQQKPGKAPKLLIYDASNLETGVPSRFSGSGSGTDFTLTISSLQPEDFATYYCQQYDAWPYTFGQGTKVEIKR
notes: Fab from E. coli
- Kd [1]: 0.251 nM

B2: B14622 (Fab, V domains shown)
VH: B1 VH
VL: DIQLTQSPSSLSASVGDRVTITCRASQSVDFYGKSFLDWYQQKPGKAPKLLIYDASNRATGIPSRFSGSGSGTDFTLTISSLQPEDFATYYCQQYDSWPYTFGQGTKVEIKR
notes: Fab from E. coli
- Kd [1]: 0.274 nM

B3: B14638 (Fab, V domains shown)
VH: B1 VH
VL: DIQLTQSPSSLSASVGDRVTITCRASQSVGSIYLGWYQQKPGKAPKLLIYDASNRATGIPSRFSGSGSGTDFTLTISSLQPEDFATYYCQQYDSWPYTFGQGTKVEIKR
notes: Fab from E. coli
- Kd [1]: 0.314 nM

B4: B14033 (Fab, V domains shown)
VH: B1 VH
VL: B1 VL with V29I, S30G, Y32F, N53S, T56S, A93Y
notes: Fab from E. coli
- Kd [1]: 0.875 nM

B5: B14681 (Fab, V domains shown)
VH: B1 VH
VL: B2 VL with Y32H, K34I, S97H
notes: Fab from E. coli
- Kd [1]: 0.543 nM

B6: B14689 (Fab, V domains shown)
VH: B1 VH
VL: B2 VL with N57S, R58L, A59E, T60S, I62V, S97H
notes: Fab from E. coli
- Kd [1]: 0.163 nM

B7: B14645 (Fab, V domains shown)
VH: B1 VH
VL: B2 VL with R58L, A59E, I62V, S97A
notes: Fab from E. coli
- Kd [1]: 0.296 nM

B8: B14652 (Fab, V domains shown)
VH: B1 VH
VL: B1 VL with S31P, Y32W, N53S, T56S
notes: Fab from E. coli
- Kd [1]: 0.294 nM

B9: B14690 (Fab, V domains shown)
VH: B1 VH
VL: B2 VL with Y32H, K34I, R58L, A59E, I62V
notes: Fab from E. coli
- Kd [1]: 0.467 nM

B10: B14614 (Fab, V domains shown)
VH: B1 VH
VL: B2 VL with Q27E
notes: Fab from E. coli
- Kd [1]: 0.353 nM

B11: B14651 (Fab, V domains shown)
VH: B1 VH
VL: B2 VL with Q27E, Y32H, D38A, S97H
notes: Fab from E. coli
- Kd [1]: 0.301 nM

B12: B14644 (Fab, V domains shown)
VH: B1 VH
VL: B2 VL with Q27E, D38A, S97Y
notes: Fab from E. coli
- Kd [1]: 0.248 nM

B13: B14665 (Fab, V domains shown)
VH: B1 VH
VL: B2 VL with D38A, N57S, R58L, A59E, T60S, I62V
notes: Fab from E. coli
- Kd [1]: 0.369 nM

B14: B14617 (Fab, V domains shown)
VH: B1 VH
VL: B2 VL with Q27E, Y32F, D38A, N57S, R58L, A59E, T60S, I62V
notes: Fab from E. coli
- Kd [1]: 0.288 nM

B15: B13005 (Fab, V domains shown)
VH: B1 VH
VL: B1 VL with G28S
notes: Fab from E. coli
- Kd [1]: 0.346 nM

B16: B13004 (Fab, V domains shown)
VH: B1 VH
VL: B1 VL with V29I, S31P, Y32W, L54R, E55A, V58I, A93S
notes: Fab from E. coli
- Kd [1]: 0.3 nM

B17: B14634 (Fab, V domains shown)
VH: B1 VH
VL: B1 VL with G28S, S31P
notes: Fab from E. coli
- Kd [1]: 0.207 nM

B18: B14658 (Fab, V domains shown)
VH: B1 VH
VL: B2 VL with Y32H
notes: Fab from E. coli
- Kd [1]: 0.142 nM

B19: B14631 (Fab, V domains shown)
VH: B1 VH
VL: B2 VL with Q27E, Y32F, D38A, R58L, A59E, I62V, S97H
notes: Fab from E. coli
- Kd [1]: 0.183 nM

B20: B14627 (Fab, V domains shown)
VH: B1 VH
VL: B1 VL with G28S, Y32W, N53S, T56S, A93S
notes: Fab from E. coli
- Kd [1]: 0.182 nM

B21: B14674 (Fab, V domains shown)
VH: B1 VH
VL: B1 VL with G28S, V29I, S30E, S31K, Y32W, N53S, T56S
notes: Fab from E. coli
- Kd [1]: 0.502 nM

B22: B14673 (Fab, V domains shown)
VH: B1 VH
VL: B2 VL with Q27E, D38A, N57S, R58L, A59E, T60S, I62V
notes: Fab from E. coli
- Kd [1]: 0.323 nM

B23: B14642 (Fab, V domains shown)
VH: B1 VH
VL: B2 VL with D38A, N57S, R58L, A59E, T60S, I62V, S97A
notes: Fab from E. coli
- Kd [1]: 0.189 nM

B24: B14650 (Fab, V domains shown)
VH: B1 VH
VL: B2 VL with Q27E, S97H
notes: Fab from E. coli
- Kd [1]: 0.357 nM

B25: B14633 (Fab, V domains shown)
VH: B1 VH
VL: B2 VL with Q27E, Y32H, K34I, D38A, S97H
notes: Fab from E. coli
- Kd [1]: 0.322 nM

B26: B14654 (Fab, V domains shown)
VH: B1 VH
VL: B1 VL with G28S, S31P, L54R, E55A, V58I
notes: Fab from E. coli
- Kd [1]: 0.232 nM

B27: B14615 (Fab, V domains shown)
VH: B1 VH
VL: B2 VL with D38A, N57S, R58L, A59E, T60S, I62V, S97H
notes: Fab from E. coli
- Kd [1]: 0.228 nM

B28: B15016 (Fab, V domains shown)
VH: EVQLVESGGGLVQPGGSLRLSCAASGYSISSGYYWGWIRQAPGKGLEWIGIIYPSGGGTNYAQKFQGRVTISRDNSKNTLYLQLNSLRAEDTAVYYCARGGGLGFDYWGQGTLVTVSS
VL: DIQLTQSPSSLSASVGDRVTITCRASQTIPSFLNWYQQKPGKAPKLLIYAASSLQSGVPSRFSGSGSGTDFTLTISSLQPEDFATYYCQHYTSWPRQFTFGQGTKVEIKR
notes: Fab from E. coli
- Kd [2]: 2.84 nM
- Kd [1]: 3.56 nM

B29: B15041 (Fab, V domains shown)
VH: B28 VH
VL: B28 VL with T28S, T92I
notes: Fab from E. coli
- Kd [2]: 1.67 nM
- Kd [1]: 1.68 nM

B30: B15014 (Fab, V domains shown)
VH: B28 VH
VL: B28 VL with T28D, S31K, N34A, S53T, T92V
notes: Fab from E. coli
- Kd [2]: 3.87 nM
- Kd [1]: 2.43 nM

B31: B14032 (Fab, V domains shown)
VH: B28 VH
VL: B28 VL with R24Q, T28D, S31T, N34A, H90Q, T92V, Q97G
notes: Fab from E. coli
- Kd [2]: 4.84 nM
- Kd [1]: 5.11 nM

B32: B15012 (Fab, V domains shown)
VH: B28 VH
VL: B28 VL with S53T, T92S, Q97G
notes: Fab from E. coli
- Kd [2]: 2.03 nM
- Kd [1]: 1.76 nM

B33: B15074 (Fab, V domains shown)
VH: B28 VH
VL: B28 VL with S53T, T92I, Q97V
notes: Fab from E. coli
- Kd [2]: 2.98 nM
- Kd [1]: 4.31 nM

B34: B15024 (Fab, V domains shown)
VH: B28 VH
VL: B28 VL with T28S, S31T, S53T, T92V, Q97L
notes: Fab from E. coli
- Kd [2]: 3.48 nM
- Kd [1]: 4.52 nM

B35: B15082 (Fab, V domains shown)
VH: B28 VH
VL: B28 VL with T92G, Q97R
notes: Fab from E. coli
- Kd [2]: 3.23 nM
- Kd [1]: 4.79 nM

B36: B15022 (Fab, V domains shown)
VH: B28 VH
VL: B28 VL with T28S, S53T, H90Q, T92S, Q97L
notes: Fab from E. coli
- Kd [2]: 3.03 nM
- Kd [1]: 3.68 nM

Source: patent publication US20210122824A1 (ADAGENE, published 2021)
